Data reported in patent US20190112342A1 (UNIVERSITY OF CHICAGO, published 2019).

B1: R domain of Coa Newman with C-terminal Strep tag (RST) (other)
chain: EARPRFNKPSETNAYNVTTHANGQVSYGARPTYKKPSETNAYNVTTHANGQVSYGARPTQNKPSKTNAYNVTTHGNGQVSYGARPTQNKPSKTNAYNVTTHANGQVSYGARPTYKKPSKTNAYNVTTHADGTATYG
notes: Encoded by plasmid pET15b-rST; also called repeat (R) domain; not shown: C-terminal Strep tag
B2: full-length strep-tagged Coa (CoaST) (other)
chain: IVTKDYSGKSQVNAGSKNGTLIDSRYLNSALYYLEDYIIYAIGLTNKYEYGDNIYKEAKDRLLEKVLREDQYLLERKKSQYEDYKQWYANYKKENPRTDLKMANFHKYNLEELSMKEYNELQDALKRALDDFHREVKDIKDKNSDLKTFNAAEEDKATKEVYDLVSEIDTLVVSYYGDKDYGEHAKELRAKLDLILGDTDNPHKITNERIKKEMIDDLNSIIDDFFMETKQNRPKSITKYNPTTHNYKTNSDNKPNFDKLVEETKKAVKEADDSWKKKTVKKYGETETKSPVVKEEKKVEEPQAPKVDNQQEVKTTAGKAEETTQPVAQPLVKIPQGTITGEIVKGPEYPTMENKTVQGEIVQGPDFLTMEQSGPSLSNNYTNPPLTNPILEGLEGSSSKLEIKPQGTESTLKGTQGESSDIEVKPQATETTEASQYGPRPQFNKTPKYVKYRDAGTGIREYNDGTFGYEARPRFNKPSETNAYNVTTHANGQVSYGARPTYKKPSETNAYNVTTHANGQVSYGARPTQNKPSKTNAYNVTTHGNGQVSYGARPTQNKPSKTNAYNVTTHANGQVSYGARPTYKKPSKTNAYNVTTHADGTATYGPRVTK
notes: Purified over Strep-Tactin-Sepharose; Used in the plasma pull-down and in the prothrombin and fibrinogen interference ELISAs; not shown: Strep tag

Target: T1, human prothrombin (human, UniProt P00734 44-622)
T1 construct: also called PT
Assay: affinity chromatography of human citrate-plasma, immunoblot with anti-prothrombin

Binder	binding result
B1	no binding
B2	binds
